This is an account of results in IntAct's records for PubMed 19357306.

First the molecules themselves.
B1: Aurora kinase A (Homo sapiens), O14965 (parent)
chain: MDRSKENCISGPVKATAPVGGPKRVLVTQQFPCQNPLPVNSGQAQRVLCPSNSSQRIPLQAQKLVSSHKPVQNQKQKQLQATSVPHPVSRPLNNTQKSKQPLPSAPENNPEEELASKQKNEESKKRQWALEDFEIGRPLGKGKFGNVYLAREKQSKFILALKVLFKAQLEKAGVEHQLRREVEIQSHLRHPNILRLYGYFHDATRVYLILEYAPLGTVYRELQKLSKFDEQRTATYITELANALSYCHSKRVIHRDIKPENLLLGSAGELKIADFGWSVHAPSSRRTTLCGTLDYLPPEMIEGRMHDEKVDLWSLGVLCYEFLVGKPPFEANTYQETYKRISRVEFTFPDFVTEGARDLISRLLKHNPSQRPMLREVLEHPWITANSSKPSNCQNKESASKQS

The first test covers variants of B1. To be noted: with tpx2_human TPX2, Q9ULW0.
Chain of tpx2_human TPX2, Q9ULW0 (Q9ULW0 whole entry): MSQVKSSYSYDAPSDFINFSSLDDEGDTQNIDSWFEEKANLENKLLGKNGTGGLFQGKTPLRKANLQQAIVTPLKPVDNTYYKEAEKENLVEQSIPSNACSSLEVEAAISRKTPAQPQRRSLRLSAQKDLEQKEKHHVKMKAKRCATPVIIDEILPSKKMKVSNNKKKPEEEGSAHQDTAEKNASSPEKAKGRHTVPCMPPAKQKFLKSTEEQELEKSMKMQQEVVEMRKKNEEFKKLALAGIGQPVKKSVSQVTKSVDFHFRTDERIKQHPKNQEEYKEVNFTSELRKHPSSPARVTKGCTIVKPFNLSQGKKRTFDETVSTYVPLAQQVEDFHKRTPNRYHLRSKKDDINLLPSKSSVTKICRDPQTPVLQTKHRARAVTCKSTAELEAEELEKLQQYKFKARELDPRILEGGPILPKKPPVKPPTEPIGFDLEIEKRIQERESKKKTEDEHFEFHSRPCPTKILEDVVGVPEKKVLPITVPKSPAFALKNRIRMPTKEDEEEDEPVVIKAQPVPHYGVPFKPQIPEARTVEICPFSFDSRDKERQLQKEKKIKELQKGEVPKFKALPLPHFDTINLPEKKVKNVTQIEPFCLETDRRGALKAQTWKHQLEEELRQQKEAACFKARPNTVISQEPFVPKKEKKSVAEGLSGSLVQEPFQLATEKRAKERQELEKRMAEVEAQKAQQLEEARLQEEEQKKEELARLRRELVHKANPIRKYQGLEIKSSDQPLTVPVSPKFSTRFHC
G198N: the “effect of a mutation on the interaction” value is “decreasing interaction”.

Variants of B1 are the subject of another test. The note with it: with ince_human INCENP.
In the case of G198V, the “effect of a mutation on the interaction” value is on record as “disrupting interaction strength”.

For G198L, the “effect of a mutation on the interaction” value is on record as “disrupting interaction strength”.

Regarding G198A, the “effect of a mutation on the interaction” value is recorded as “disrupting interaction strength”.
